From PMC8278045 come the findings set out here.

Holding throughout (assay): affinity purification with mass spectrometry; GFP pull-down (µMACS/MultiMACS GFP Isolation Kit beads) from thylakoid membranes of GFP-labelled Syn7942 strains solubilised with 1% digitonin; label-free LC-MS/MS, abundances normalised to GFP, WT strain as control, triplicates
For experiment [1], the target named is PsaE of Photosystem I labelled with enhanced GFP (PSI–GFP) (Synechococcus elongatus PCC 7942) (UniProt Q31NL7).
UniProt Q31NL7, sequence (Q31NL7 whole entry): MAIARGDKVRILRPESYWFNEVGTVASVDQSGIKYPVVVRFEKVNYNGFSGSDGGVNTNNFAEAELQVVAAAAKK
Experiment [2] has as its target PsbB (CP47) of Photosystem II labelled with enhanced GFP (PSII–GFP) (Synechococcus elongatus PCC 7942) (UniProt P31094).
UniProt P31094, sequence (P31094 whole entry): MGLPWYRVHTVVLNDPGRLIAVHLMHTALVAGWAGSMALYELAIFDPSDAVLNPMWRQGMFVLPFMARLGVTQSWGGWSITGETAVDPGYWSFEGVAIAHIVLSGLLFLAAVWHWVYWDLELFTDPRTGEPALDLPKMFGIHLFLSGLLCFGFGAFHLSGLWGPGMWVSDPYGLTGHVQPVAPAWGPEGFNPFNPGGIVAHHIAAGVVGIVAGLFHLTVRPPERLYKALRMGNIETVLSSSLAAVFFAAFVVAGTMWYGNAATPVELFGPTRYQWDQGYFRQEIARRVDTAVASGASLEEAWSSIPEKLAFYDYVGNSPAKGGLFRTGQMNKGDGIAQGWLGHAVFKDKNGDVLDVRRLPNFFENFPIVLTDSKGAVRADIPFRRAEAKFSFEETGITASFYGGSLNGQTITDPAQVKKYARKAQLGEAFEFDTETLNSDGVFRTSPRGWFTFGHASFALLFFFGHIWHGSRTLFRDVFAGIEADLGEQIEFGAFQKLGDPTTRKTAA
Experiment [3] concerns the target PetA of Cytochrome b6f labelled with enhanced GFP (Cyt b6f–GFP) (Synechococcus elongatus PCC 7942) (UniProt Q31NV8).
UniProt Q31NV8, sequence (Q31NV8 31-324): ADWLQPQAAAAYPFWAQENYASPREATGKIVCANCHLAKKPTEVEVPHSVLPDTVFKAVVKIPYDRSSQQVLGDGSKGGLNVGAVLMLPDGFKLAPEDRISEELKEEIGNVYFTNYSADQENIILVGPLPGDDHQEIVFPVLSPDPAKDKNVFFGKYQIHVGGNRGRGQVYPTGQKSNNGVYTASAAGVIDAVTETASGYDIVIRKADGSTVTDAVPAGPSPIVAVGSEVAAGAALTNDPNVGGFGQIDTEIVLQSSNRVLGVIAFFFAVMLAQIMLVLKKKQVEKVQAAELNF

For the substance “Cytochrome b6f (Cyt b6f) (from UniProt Q31KG3 1-37) (complex)”, the percent of PSI associated with Cyt b6f in experiment [1] was found to be 0.3%. In addition, the percent of PSII associated with Cyt b6f in experiment [2] stood at 1.98%.
In the case of “Photosystem II (PSII) (from UniProt P31094 1-508; Q31M07 29-136; Q31LM9 31-167; Q31LS7 1-40) (complex)”, in experiment [3], the percent of Cyt b6f associated with PSII worked out at 2%. In addition, the percent of PSI associated with PSII in experiment [1] worked out at 1.72%.
As to “Photosystem I (PSI) (from UniProt P0A421 1-139; P0A402 24-164; P0A426 5-83) (complex)”, the percent of Cyt b6f associated with PSI in experiment [3] worked out at 4.1%. In addition, in experiment [2], the percent of PSII associated with PSI worked out at 9.9%.
